Data as given in paper PMC3834833 (Nucleic Acids Research, 2013).
Several values for one entry are separate records, joined by “and”; a condition that tells them apart may be missing. Identical values can stand only once.

B1: translin variant Nt-1 (I6A/F7A) (natural protein, human, UniProt Q15631 1-228, looked up)
chain: MSVSEAAVELQGFLAAEQDIREEIRKVVQSLEQTAREILTLLQGVHQGAGFQDIPKRCLKAREHFGTVKTHLTSLKTKFPAEQYYRFHEHWRFVLQRLVFLAAFVVYLETETLVTREAVTEILGIEPDREKGFHLDVEDYLSGVLILASELSRLSVNSVTAGDYSRPLHISTFINELDSGFRLLNLKNDSLRKRYDGLKYDVKKVEEVVYDLSIRGFNKETAAACVEK
notes: translin, human; mutant of the pQE-9 translin plasmid made by QuikChange site-directed mutagenesis; Same construct as m1 with the stated substitutions; also called N-terminal 1; source: E. coli, purified

Legend:
translin (wild type) = translin (wild type) (Homo sapiens, UniProt Q15631 1-228); assay: SAXS; translin octamer:RNA 1:1.5; Rg 47.2 vs 48.4 A free; SAXS: 10 mM Tris-HCl pH 8.0, 100 mM NaCl, 0.1 mM EDTA, 1 mM DTT, 5% glycerol; complex incubated 20 min at 25 C, measured at 10 C; conditions: protein: recombinant; tags: N-terminal His6 (pQE-9); chain copies: 8; single strand
[1] = biological target: the molecule itself; assay: glycerol gradient centrifugation; 10 ml linear 20-40% (v/v) glycerol gradient, 10 mM Tris-HCl pH 8.0, 100 mM NaCl, 1 mM EDTA, 2 mM DTT; SW-41 rotor, 38 000 rpm, 24 h, 8°C; fractions by SDS-PAGE and Coomassie; S value and molecular weight by comparison with protein markers; major oligomeric state

Row | Binder | binding result (translin (wild type)) | stoichiometry N [1]
1 | GUGUGUGUGUGUGUGUGUGUGUGU (ssRNA) [(GU)12] | binds | 
2 | B1 |  | 4 subunits and 3.9 subunits
